These results are taken from US9459207B2, “Method of characterizing interactions and screening for effectors” (Wyatt Technology Corporation, priority 2010, dated 2016).

The target of this assay is chymotrypsin (Bos taurus, UniProt P00766). Briefly: Dynamic light scattering heteroassociation experiment (rh vs molar ratio of the two proteins, fitted). Type of assay: binding. The method, then: The method begins with sample preparation to be described presently. The DLS data are collected, and then analyzed in a four-step procedure. First, the concentrations of all components in a solution at a given time are calculated from postulated stoichiometries, association constant(s), Ka, and the known a priori concentrations of the stock solutions of the constituent molecule(s). […] Third, the modeled concentration data and modeled hydrodynamic radius data are combined to model the expected dynamic light scattering data at each sample ratio. Fourth, a best fit of the models to the collected DLS data is obtained. Thus, some or all parameters are adjusted to produce a best fit to the DLS data. Such fitting might be achieved using a least squares method, for example. These four steps of data analysis are discussed in detail in the following, and variations are possible, as would be apparent to one skilled in the art of DLS or particle associations.
In this example, to prepare the sample series for both self- and hetero-association, two stock solutions are mixed manually. For analysis of hetero-association, a high concentration, on the order of 0.5 mg/mL, solution of each pure molecule is prepared in the same solvent. For larger molecules, such as those greater than, say, 50 kDa, lower concentrations may be used. For analysis of self-association reactions, the molecular solution is prepared at the highest concentration to be tested; the second solution is the pure solvent in which the sample molecule was prepared. All solutions are filtered through a 0.02 μm filter.
For either type of analysis, aliquots of the two solution mixtures are dispensed into a 1536 well microtiter plate in a series of ratios from 100% A:0% B to 0% A:100% B, or some subset thereof, where the number of ratios prepared depends upon the desired detail of analysis. Typically, 10-20 ratios are used.
Following the dispensing of the sample, the microtiter plate is centrifuged at a rate and duration sufficient to remove any bubbles present in the samples; typically 1000 g for 15 seconds. Wells may then be covered to avoid evaporation, for example, by dispensing approximately 10 μL of paraffin oil into each well. The plate is then re-centrifuged prior to being placed into a dynamic light scattering instrument programmed, for example, to make 25 one-second dynamic light scattering measurements per well.
As an example of the inventive method, we consider two species A and B associating to form species AB with equilibrium association constant KAB: A+B ? AB. In this example we will use fitting procedure C, using the average hydrodynamic radius found by fitting the autocorrelation function measured for each sample to a cumulants model. We will assume that Equation (11) is valid. […]

For the molecule “lysozyme: protein, 14.4 kDa, negative control”, where the note is “negative control, FIG. 5”, the “binding to chymotrypsin (in words)” value is listed as “no binding”. Further, where the note is “negative control, pH 6.7”, the association constant stood at 0.

B1: soybean trypsin inhibitor: protein, molar mass of 22 kDa, binds chymotrypsin (protein, UniProt P01070 25-205, looked up)
Trypsin inhibitor A: DFVLDNEGNPLENGGTYYILSDITAFGGIRAAPTGNERCPLTVVQSRNELDKGIGTIISSPYRIRFIAEGHPLSLKFDSFAVIMLCVGIPTEWSVVEDLPEGPAVKIGENKDAMDGWFRLERVSDDEFNNYKLVFCPQQAEDDKCGDIGISIDHDDGTRRLVVSKNKPLVVQFQKLDKESL
For B1, the “a value (association conformation parameter)” value (DLS fit, rAB={rA^a+rB^a}^1/a) is recorded as 2.26. The association constant (DLS fit, soybean trypsin inhibitor fitted with an incompetent fraction of chymotrypsin) worked out at 3.8e+06 M⁻¹.
